The target in this experiment is T1, interleukin-33 (IL-33) (human, UniProt O95760 95-270, limits assumed).
T1 construct: This is endogenous circulating IL-33 in treated patients, not a recombinant construct; also called total IL-33
T1 sequence (looked up): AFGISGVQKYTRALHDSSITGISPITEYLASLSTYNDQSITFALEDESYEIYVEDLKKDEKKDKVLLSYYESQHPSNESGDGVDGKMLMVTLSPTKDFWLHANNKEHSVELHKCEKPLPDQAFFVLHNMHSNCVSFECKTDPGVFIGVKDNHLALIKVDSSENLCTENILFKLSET
Description: Target mediated drug disposition (TMDD) model of total IL-33 vs. time in serum, driven by PopPK-predicted PK, all studies; an in vivo model estimate, not a direct binding assay; in vivo TMDD model estimate from clinical total IL-33 data, not a direct binding assay. Here is the method: Total TL-33 vs. time was modelled using a target mediated drug disposition (TMDD) approach. All studies were included in the analysis. PopPK predicted PK for each individual was used to drive the total IL-33 dynamics. […] (This was based on the baseline IL-33 assumption of ½ lower limit of quantification (LLOQ).) Based on the computed threshold, 300 mg Q2W, 300 mg Q4W, and 300 mg Q8W may be able to meet the threshold target for achieving 90% target engagement.

B1: SAR440340 (antibody, human IgG4 S228P, kappa, V domains shown)
VH: VQLVESGGNLEQPGGSLRLSCTASGFTFSRSAMNWVRRAPGKGLEWVSGISGSGGRTYYADSVKGRFTISRDNSKNTLYLQMNSLSAEDTAAYYCAKDSYTTSWYGGMDVWGHGTTVTVSS
VL: IQMTQSPSSVSASVGDRVTITCRASQGIFSWLAWYQQKPGKAPKLLIYAASSLQSGVPSRFSGSGSGTDFTLTISSLQPEDFAIYYCQQANSVPITFGQGTRLEIKR
notes: Human anti-IL-33 antibody; also called REGN3500; itepekimab
By Kd is commonly meant the free concentration of one partner at which half of the binding sites on the other are occupied at equilibrium, for simple one-to-one binding. In the case of B1, the Kd is 7.01 nM.

The values are drawn from US20210230265A1 (Sanofi, published 2021).
